Experimental data as given in patent EP4506361A1 (Biotheus Inc., dated 2025).
Numbering of substitutions follows the chain as printed.

B1: anti-c-Met single-arm antibody 23 (antibody, human IgG1, kappa, L234A L235A)
heavy: not shown
light: DIVMTQSPSSLSASVGDRVTITCRASQSFSDYLNWYRQKPGKAPKLLLFAASSLQSGVPSRFSGSGSGTDFTLTISSLQPEDFATYYCQQSYSPPYTFGQGTKLEIKRTVAAPSVFIFPPSDEQLKSGTASVVCLLNNFYPREAKVQWKVDNALQSGNSQESVTEQDSKDSTYSLSSTLTLSKADYEKHKVYACEVTHQGLSSPVTKSFNRGEC
chain: not shown
B2: Amivantamab single-arm antibody (antibody, human IgG1, kappa, L234A L235A)
heavy: not shown
light: DIQMTQSPSSVSASVGDRVTITCRASQGISNWLAWFQHKPGKAPKLLIYAASSLLSGVPSRFSGSGSGTDFTLTISSLQPEDFATYYCQQANSFPITFGQGTRLEIKRTVAAPSVFIFPPSDEQLKSGTASVVCLLNNFYPREAKVQWKVDNALQSGNSQESVTEQDSKDSTYSLSSTLTLSKADYEKHKVYACEVTHQGLSSPVTKSFNRGEC
chain: not shown
notes: also called control antibody Amivantamab
B3: anti-c-Met single-arm antibody 22 (antibody, human IgG1, kappa, L234A L235A)
heavy: not shown
light: DIVMTQSPSSVSASVGDRVTITCRASQGISSWLAWYQQKPGKAPKLLIYAASSLQSGVPSKFSGSGSGTEFTLTISSLQPEDFATYFCQQAYGFPLTFGGGTKVEIKRTVAAPSVFIFPPSDEQLKSGTASVVCLLNNFYPREAKVQWKVDNALQSGNSQESVTEQDSKDSTYSLSSTLTLSKADYEKHKVYACEVTHQGLSSPVTKSFNRGEC
chain: not shown
B4: anti-c-Met single-arm antibody 74 (antibody, human IgG1, kappa, L234A L235A)
heavy: not shown
light: B3 light with S30N, K45N, K61R, S65R, E70D, T72S, Q79H, F87Y, Y92K
chain: not shown
B5: anti-c-Met single-arm antibody 136 (antibody, human IgG1, kappa, L234A L235A)
heavy: not shown
light: B3 light with A51V, K61R, E70D, Y92N, G93S
chain: not shown
B6: LY2875358 single-arm antibody (antibody, human IgG1, kappa, L234A L235A)
heavy: not shown
light: DIQMTQSPSSLSASVGDRVTITCSVSSSVSSIYLHWYQQKPGKAPKLLIYSTSNLASGVPSRFSGSGSGTDFTLTISSLQPEDFATYYCQVYSGYPLTFGGGTKVEIKRTVAAPSVFIFPPSDEQLKSGTASVVCLLNNFYPREAKVQWKVDNALQSGNSQESVTEQDSKDSTYSLSSTLTLSKADYEKHKVYACEVTHQGLSSPVTKSFNRGEC
chain: not shown
notes: also called control antibody LY2875358
B7: Onartuzumab (antibody, human IgG1, kappa, L234A L235A)
heavy: not shown
light: DIQMTQSPSSLSASVGDRVTITCKSSQSLLYTSSQKNYLAWYQQKPGKAPKLLIYWASTRESGVPSRFSGSGSGTDFTLTISSLQPEDFATYYCQQYYAYPWTFGQGTKVEIKRTVAAPSVFIFPPSDEQLKSGTASVVCLLNNFYPREAKVQWKVDNALQSGNSQESVTEQDSKDSTYSLSSTLTLSKADYEKHKVYACEVTHQGLSSPVTKSFNRGEC
chain: not shown
notes: Control antibody, made from three plasmids in Expi-CHO cells; also called control antibody onartuzumab; antibody onartuzumab
B8: anti-c-Met single-arm antibody 187 (antibody, human IgG1, kappa, L234A L235A)
heavy: not shown
light: B3 light with K45N, S53N, Q55P, K61R, E70V, F87Y, A91S, Y92N, G93S
chain: not shown
B9: anti-c-Met single-arm antibody 221 (antibody, human IgG1, kappa, L234A L235A)
heavy: not shown
light: EIVLTQSPGTLSLSPGERATLSCRASQSVSSSYLAWYQQKPGQAPRLLIYGPSSRATGIPDRFSGSGSGTDFTLTISSLQPADFASYYCQQSYITPYTFGQGTKVEIKRTVAAPSVFIFPPSDEQLKSGTASVVCLLNNFYPREAKVQWKVDNALQSGNSQESVTEQDSKDSTYSLSSTLTLSKADYEKHKVYACEVTHQGLSSPVTKSFNRGEC
chain: not shown
B10: anti-c-Met single-arm antibody 223 (antibody, human IgG1, kappa, L234A L235A)
heavy: not shown
light: DIQLTQSPSSLSASVGDRVTITCRASQSIITYLNWYQQKPGKAPKLLIYAASSLQSGVPSRFSGSGSGTDFTLNISSLQPEDFATYYCQQANSLPYTFGQGTKVEIKRTVAAPSVFIFPPSDEQLKSGTASVVCLLNNFYPREAKVQWKVDNALQSGNSQESVTEQDSKDSTYSLSSTLTLSKADYEKHKVYACEVTHQGLSSPVTKSFNRGEC
chain: not shown

Each binder was assayed against T1, human c-Met on HEK293T cells overexpressing human c-Met (HEK293-Hu c-Met) (human, UniProt P08581 25-1390) (assay: flow cytometry on HEK293-Hu c-Met cells, first EC50 column).
T1 construct: whole, on cells; also called human c-Met overexpression cells
T1 sequence (P08581 25-1390): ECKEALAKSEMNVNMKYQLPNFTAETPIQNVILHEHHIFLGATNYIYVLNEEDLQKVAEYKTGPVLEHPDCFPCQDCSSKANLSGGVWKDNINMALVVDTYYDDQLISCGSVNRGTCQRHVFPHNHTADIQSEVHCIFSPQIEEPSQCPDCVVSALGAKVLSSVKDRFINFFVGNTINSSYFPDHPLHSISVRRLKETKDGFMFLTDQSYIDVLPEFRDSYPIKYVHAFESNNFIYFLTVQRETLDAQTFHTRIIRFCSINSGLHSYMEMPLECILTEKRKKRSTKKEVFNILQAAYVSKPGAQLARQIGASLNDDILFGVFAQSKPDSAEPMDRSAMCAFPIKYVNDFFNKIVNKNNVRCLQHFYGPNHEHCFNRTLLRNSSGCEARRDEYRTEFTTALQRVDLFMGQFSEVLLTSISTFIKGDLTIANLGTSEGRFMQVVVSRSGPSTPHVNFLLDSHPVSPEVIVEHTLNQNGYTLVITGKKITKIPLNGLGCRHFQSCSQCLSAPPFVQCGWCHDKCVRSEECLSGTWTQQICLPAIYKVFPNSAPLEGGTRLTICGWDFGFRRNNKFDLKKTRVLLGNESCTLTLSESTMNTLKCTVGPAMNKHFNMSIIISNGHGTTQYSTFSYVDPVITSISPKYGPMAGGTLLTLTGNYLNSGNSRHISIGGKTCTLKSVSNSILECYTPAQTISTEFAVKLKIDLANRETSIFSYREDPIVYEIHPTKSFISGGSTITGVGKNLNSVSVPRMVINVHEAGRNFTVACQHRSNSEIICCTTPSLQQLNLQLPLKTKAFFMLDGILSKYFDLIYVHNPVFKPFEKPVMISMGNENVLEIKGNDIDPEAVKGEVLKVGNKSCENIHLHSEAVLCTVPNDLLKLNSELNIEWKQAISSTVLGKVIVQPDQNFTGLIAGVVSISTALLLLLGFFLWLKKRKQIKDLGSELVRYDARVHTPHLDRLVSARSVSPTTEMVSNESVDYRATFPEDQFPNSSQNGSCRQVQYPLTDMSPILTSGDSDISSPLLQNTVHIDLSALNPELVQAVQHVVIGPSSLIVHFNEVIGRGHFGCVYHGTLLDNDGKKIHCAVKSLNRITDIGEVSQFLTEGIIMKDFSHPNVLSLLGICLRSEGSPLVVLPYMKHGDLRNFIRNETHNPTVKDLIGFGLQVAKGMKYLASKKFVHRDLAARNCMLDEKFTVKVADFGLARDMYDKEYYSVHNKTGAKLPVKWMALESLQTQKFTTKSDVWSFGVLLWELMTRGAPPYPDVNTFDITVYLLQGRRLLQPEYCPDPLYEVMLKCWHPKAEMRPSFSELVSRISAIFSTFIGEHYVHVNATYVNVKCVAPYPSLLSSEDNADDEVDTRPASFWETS

| EC50 [nM] | Binder |
| --- | --- |
| 0.821 | B1 |
| 0.323 | B2 |
| 0.947 | B3 |
| 1.9 | B4 |
| 0.452 | B5 |
| 1.25 | B6 |
| 1.03 | B7 |

These binders were tested against T1, human c-Met on HEK293T cells … (assay: flow cytometry on HEK293-Hu c-Met cells).

| EC50 [nM] | Binder |
| --- | --- |
| 0.396 | B2 |
| 0.732 | B8 |
| 1.73 | B9 |
| 1.39 | B6 |
| 0.765 | B10 |
| 0.54 | B7 |

These binders were tested against T2, rhesus c-Met on HEK293T cells overexpressing rhesus c-Met (HEK293-Rhe c-Met) (rhesus monkey, UniProt F7H1K4 25-1381) (assay: flow cytometry on HEK293-Rhe c-Met cells, first EC50 column).
T2 construct: also called rhesus monkey c-Met
T2 sequence (F7H1K4 entry or part of it limits assumed, form in doubt): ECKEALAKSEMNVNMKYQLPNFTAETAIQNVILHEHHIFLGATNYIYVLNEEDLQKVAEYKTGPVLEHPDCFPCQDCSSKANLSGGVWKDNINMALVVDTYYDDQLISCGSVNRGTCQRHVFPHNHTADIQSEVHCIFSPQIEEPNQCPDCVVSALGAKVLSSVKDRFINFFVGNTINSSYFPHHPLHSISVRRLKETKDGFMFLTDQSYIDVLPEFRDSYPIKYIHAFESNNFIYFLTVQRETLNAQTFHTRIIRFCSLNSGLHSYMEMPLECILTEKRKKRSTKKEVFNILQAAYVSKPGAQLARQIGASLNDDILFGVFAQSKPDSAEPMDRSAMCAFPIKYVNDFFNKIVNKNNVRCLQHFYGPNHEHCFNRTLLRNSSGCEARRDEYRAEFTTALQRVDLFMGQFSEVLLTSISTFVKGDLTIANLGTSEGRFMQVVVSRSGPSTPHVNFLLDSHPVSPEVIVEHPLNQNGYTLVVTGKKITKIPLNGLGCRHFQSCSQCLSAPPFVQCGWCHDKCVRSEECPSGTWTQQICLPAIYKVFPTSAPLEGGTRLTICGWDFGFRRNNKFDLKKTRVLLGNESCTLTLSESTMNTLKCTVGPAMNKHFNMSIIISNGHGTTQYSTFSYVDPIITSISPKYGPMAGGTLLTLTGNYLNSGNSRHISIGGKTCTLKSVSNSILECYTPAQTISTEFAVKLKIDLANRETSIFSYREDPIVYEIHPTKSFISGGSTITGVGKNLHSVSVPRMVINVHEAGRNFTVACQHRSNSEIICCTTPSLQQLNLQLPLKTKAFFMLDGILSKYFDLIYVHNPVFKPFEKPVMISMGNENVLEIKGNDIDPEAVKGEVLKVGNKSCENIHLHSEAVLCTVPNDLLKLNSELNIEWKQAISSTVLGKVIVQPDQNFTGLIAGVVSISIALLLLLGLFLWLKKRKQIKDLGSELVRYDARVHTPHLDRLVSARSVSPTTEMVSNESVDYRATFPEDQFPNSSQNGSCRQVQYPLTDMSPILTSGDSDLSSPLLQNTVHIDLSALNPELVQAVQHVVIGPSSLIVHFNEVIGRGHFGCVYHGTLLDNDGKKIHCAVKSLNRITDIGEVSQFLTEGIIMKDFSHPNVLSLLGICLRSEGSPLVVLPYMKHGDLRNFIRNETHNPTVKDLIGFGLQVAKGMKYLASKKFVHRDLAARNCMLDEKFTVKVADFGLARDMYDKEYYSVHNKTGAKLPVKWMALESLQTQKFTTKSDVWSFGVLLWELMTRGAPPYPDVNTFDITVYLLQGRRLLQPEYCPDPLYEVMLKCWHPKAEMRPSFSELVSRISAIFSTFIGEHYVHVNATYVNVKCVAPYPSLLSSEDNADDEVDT

| EC50 [nM] | Binder |
| --- | --- |
| 0.746 | B1 |
| 0.241 | B2 |
| 0.726 | B3 |
| 1.46 | B4 |
| 0.306 | B5 |
| 0.868 | B6 |
| 0.97 | B7 |

These binders were tested against T2, rhesus c-Met on HEK293T cells … (assay: flow cytometry on HEK293-Rhe c-Met cells).

| EC50 [nM] | Binder |
| --- | --- |
| 0.2 | B2 |
| 0.592 | B8 |
| 1.48 | B9 |
| 0.749 | B6 |
| 1.06 | B10 |
| 1.24 | B7 |

The binders below were run against T3, human c-Met protein (purchased from AcroBiosystems) (human, UniProt P08581 25-932) (assay: BLI (ForteBio), antibody on AHQ sensor, 100 nM human c-Met antigen, 1:1 model).
T3 construct: Soluble antigen of the ForteBio assay; also called human c-Met antigen
T3 sequence (P08581 25-932 limits assumed): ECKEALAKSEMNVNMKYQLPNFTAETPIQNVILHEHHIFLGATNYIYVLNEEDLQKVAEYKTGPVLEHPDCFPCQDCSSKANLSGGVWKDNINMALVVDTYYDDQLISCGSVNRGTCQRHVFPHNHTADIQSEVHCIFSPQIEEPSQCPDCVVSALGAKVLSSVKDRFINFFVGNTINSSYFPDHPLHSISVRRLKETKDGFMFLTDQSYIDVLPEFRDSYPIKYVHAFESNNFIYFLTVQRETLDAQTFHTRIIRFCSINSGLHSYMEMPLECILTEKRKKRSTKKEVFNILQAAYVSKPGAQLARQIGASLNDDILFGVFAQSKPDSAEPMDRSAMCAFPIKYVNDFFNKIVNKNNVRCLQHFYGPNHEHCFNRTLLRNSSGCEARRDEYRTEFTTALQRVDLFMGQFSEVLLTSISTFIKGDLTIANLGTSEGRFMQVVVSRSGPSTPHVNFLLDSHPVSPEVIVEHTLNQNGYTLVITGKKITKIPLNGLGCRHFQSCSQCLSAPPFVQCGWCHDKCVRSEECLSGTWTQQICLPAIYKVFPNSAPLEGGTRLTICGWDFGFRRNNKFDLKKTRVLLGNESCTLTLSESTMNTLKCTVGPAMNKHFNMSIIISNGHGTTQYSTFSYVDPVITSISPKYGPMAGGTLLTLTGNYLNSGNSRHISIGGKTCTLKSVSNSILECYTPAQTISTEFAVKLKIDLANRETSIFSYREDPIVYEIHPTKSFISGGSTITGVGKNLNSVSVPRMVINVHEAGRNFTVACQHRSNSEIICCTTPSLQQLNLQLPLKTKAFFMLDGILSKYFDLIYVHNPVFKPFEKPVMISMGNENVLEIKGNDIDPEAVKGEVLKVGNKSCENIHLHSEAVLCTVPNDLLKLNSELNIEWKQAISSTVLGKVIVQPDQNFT

| Kd [nM] | koff [s⁻¹] | kon [M⁻¹ s⁻¹] | Binder |
| --- | --- | --- | --- |
| 0.596 | 9.5e-05 | 160000 | B1 |
| 4.29 | 0.000548 | 128000 | B3 |
| 1.68 | 0.000369 | 220000 | B8 |
| 6.01 | 0.00108 | 179000 | B4 |
| 0.0293 | 6.71e-06 | 229000 | B5 |
| 2.01 | 0.00037 | 184000 | B9 |
| 9.76 | 0.00163 | 167000 | B10 |

What follows are binders tested against cynomolgus monkey c-Met protein (purchased from AcroBiosystems) (cynomolgus monkey, UniProt A0A2K5UM36 25-932) (assay: BLI (ForteBio), antibody on AHQ sensor, cynomolgus monkey c-Met protein in solution).
cynomolgus monkey c-Met protein (purchased from AcroBiosystems), sequence (A0A2K5UM36 entry or part of it limits assumed, form in doubt): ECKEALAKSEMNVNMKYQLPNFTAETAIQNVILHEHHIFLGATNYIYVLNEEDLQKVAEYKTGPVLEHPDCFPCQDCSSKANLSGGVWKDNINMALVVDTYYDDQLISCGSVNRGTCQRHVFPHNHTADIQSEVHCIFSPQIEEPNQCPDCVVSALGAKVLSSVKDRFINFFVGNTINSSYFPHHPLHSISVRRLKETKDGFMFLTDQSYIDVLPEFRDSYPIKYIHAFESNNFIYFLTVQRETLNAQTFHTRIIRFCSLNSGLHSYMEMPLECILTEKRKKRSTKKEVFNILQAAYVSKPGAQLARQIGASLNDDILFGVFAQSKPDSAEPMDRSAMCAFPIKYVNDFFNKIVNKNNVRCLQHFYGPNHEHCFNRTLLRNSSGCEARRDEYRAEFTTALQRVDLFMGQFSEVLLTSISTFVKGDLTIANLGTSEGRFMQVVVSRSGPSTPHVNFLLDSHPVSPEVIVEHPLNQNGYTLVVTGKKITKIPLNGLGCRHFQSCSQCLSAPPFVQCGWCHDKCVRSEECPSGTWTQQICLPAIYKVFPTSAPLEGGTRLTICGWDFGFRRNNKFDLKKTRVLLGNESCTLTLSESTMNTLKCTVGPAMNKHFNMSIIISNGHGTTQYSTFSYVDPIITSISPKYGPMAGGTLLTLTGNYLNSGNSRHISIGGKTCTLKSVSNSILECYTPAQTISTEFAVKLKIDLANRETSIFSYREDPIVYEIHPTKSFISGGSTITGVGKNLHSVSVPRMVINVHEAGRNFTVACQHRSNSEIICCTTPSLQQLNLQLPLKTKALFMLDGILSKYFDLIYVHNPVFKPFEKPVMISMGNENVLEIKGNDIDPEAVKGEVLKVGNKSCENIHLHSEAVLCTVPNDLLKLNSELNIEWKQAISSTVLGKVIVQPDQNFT

| Kd [nM] | koff [s⁻¹] | kon [M⁻¹ s⁻¹] | Binder |
| --- | --- | --- | --- |
| 26.5 | 0.00151 | 56900 | B1 |
| 19 | 0.00259 | 136000 | B3 |
| 2.92 | 0.000947 | 324000 | B8 |
| 9.7 | 0.0026 | 269000 | B4 |
| 1.16 | 0.000426 | 369000 | B5 |
| 63.8 | 0.00192 | 30100 | B9 |
| 16.2 | 0.00109 | 67300 | B10 |
